Laboratory results as given in patent publication US20240166702A1 (published 2024).

Target: EGFR kinase domain (UniProt P00533 696-1022, fluorescent dye attached through the His-tag)
Assay: MST

- Kd: 2900 nM
B1: Sorting Nexin 1 (SNX1) Bar domain (other)
chain: MNESDIWFEEKLQEVECEEQRLRKLHAVVETLVNHRKELALNTAQFAKSLAMLGSSEDNTALSRALSQLAEVEEKIEQLHQEQANNDFFLLAELLSDYIRLLAIVRAAFDQRMKTWQRWQDAQATLQKKREAEARLLWANKPDKLQQAKDEILEWESRVTQYERDFERISTVVRKEVIRFEKEKSKDFKNHVIKYLETLLYSQQQLAKYWEAFLPEAKAIS
